Laboratory results from patent US20060183125A1.

Key:
[1] = target: human TREM-1-Ligand (human); assay: flow cytometry, double staining with anti CD15, CD15 high neutrophils of a septic patient
[2] = target: human TREM-1-Ligand (human); assay: flow cytometry on peripheral neutrophils of a sepsis patient, 0.2 µg huTREM-1/IgM
[3] = target: human TREM-1-Ligand (human); assay: flow cytometry on peripheral neutrophils of a sepsis patient, 1 µg huTREM-1/IgM
[4] = target: human TREM-1-Ligand (human); assay: flow cytometry, double staining with anti CD15, CD15 low neutrophils of a septic patient
[5] = target: murine TREM-1-Ligand (mouse); assay: flow cytometry, high Ly-6G peritoneal cell subset, septic (CLP) mouse
[6] = target: murine TREM-1-Ligand (mouse); assay: flow cytometry, tetramer staining of blood cells of septic mice 6 hours after CLP induction
[7] = target: murine TREM-1-Ligand (mouse); assay: flow cytometry, low Ly-6G peritoneal cell subset, control mouse
[8] = target: murine TREM-1-Ligand (mouse); assay: flow cytometry, peritoneal cells of a representative septic (CLP) mouse
[9] = target: murine TREM-1-Ligand (mouse); assay: flow cytometry, peritoneal cells of a representative control mouse
[10] = target: murine TREM-1-Ligand (mouse); assay: flow cytometry, low Ly-6G peritoneal cell subset, septic (CLP) mouse

Substance | percentage of TREM-1-Ligand expressing cells [1] [%] | percent of cells stained positive [2] [%] | percent of cells stained positive [3] [%] | percentage of TREM-1-Ligand expressing cells [4] [%] | frequency of double positive population [5] [%] | percent of Ly-6G positive cells positive [6] [%] | frequency of double positive population [7] [%] | frequency of Ly-6G positive, murine TREM-1-Receptor/IgG positive cells [8] [%] | frequency of Ly-6G positive, murine TREM-1-Receptor/IgG positive cells [9] [%] | frequency of double positive population [10] [%]
human TREM-1-Receptor/human IgM fusion protein (from UniProt Q9NP99 21-200) | 2 | 45 | 80 | 38 | – | – | – | – | – | –
murine TREM-1-Receptor/human IgG fusion protein (from UniProt Q9JKE2 21-202) (Fc fusion) | – | – | – | – | 33 | 2 | 40 | 35 | 8.8 | 77
